Experimental data as given in the Human Domainome abundance scans (Beltran et al. 2025).
± gives the uncertainty stated by the source.

B1: F-BAR and double SH3 domains protein 1, residues 467 to 528; numbered along this chain, Q86WN1 (parent)
chain: RALPCPAHVVFRYQAGREDELTITEGEWLEVIEEGDADEWVKARNQHGEVGFVPERYLNFPD

Variants of: B1
Test: abundance fitness (aPCA) (normalised: wild type 0, dead -1); higher = more abundant; growth selection in yeast, the domain comes from the species named
Conditions: Homo sapiens

Q: With A43N as the variant, how does the abundance fitness read?
A: -0.763 ± 0.21

Q: Which abundance fitness does the source give for A43I here?
A: -0.297 ± 0.2

Q: For A43T, which abundance fitness is on record?
A: -0.409 ± 0.1

Q: For A43K, which abundance fitness is on record?
A: -0.71 ± 0.17

Q: Which abundance fitness does the source give for D38S here?
A: 0.005 ± 0.045

Q: For D38F, which abundance fitness is on record?
A: -0.127 ± 0.077

Q: With D38Q as the variant, how does the abundance fitness read?
A: 0.021 ± 0.099

Q: For D38R, which abundance fitness is on record?
A: 0.053 ± 0.054

Q: For Q46L, which abundance fitness is on record?
A: -0.056 ± 0.045

Q: For Q46V, which abundance fitness is on record?
A: -0.088 ± 0.044

Q: For Q46P, which abundance fitness is on record?
A: -0.334 ± 0.074

Q: With Q46W as the variant, how does the abundance fitness read?
A: -0.228 ± 0.093

Q: With Q46N as the variant, how does the abundance fitness read?
A: -0.027 ± 0.17

Q: Which abundance fitness does the source give for Q46D here?
A: -0.198 ± 0.076

Q: For G51Q, which abundance fitness is on record?
A: -1.03 ± 0.24

Q: With G51N as the variant, how does the abundance fitness read?
A: -1.17 ± 0.44

Q: Which abundance fitness does the source give for G51T here?
A: -0.698 ± 0.091

Q: With G51K as the variant, how does the abundance fitness read?
A: -0.42 ± 0.28

Q: With G51W as the variant, how does the abundance fitness read?
A: -0.954 ± 0.13

Q: Which abundance fitness does the source give for E34A here?
A: 0.017 ± 0.061

Q: With E34M as the variant, how does the abundance fitness read?
A: -0.085 ± 0.063

Q: Which abundance fitness does the source give for E34T here?
A: -0.048 ± 0.067

Q: With E34L as the variant, how does the abundance fitness read?
A: -0.028 ± 0.044

Q: With E34F as the variant, how does the abundance fitness read?
A: 0.127 ± 0.095

Q: Which abundance fitness does the source give for E34Y here?
A: -0.053 ± 0.14

Q: Which abundance fitness does the source give for E30H here?
A: -0.218 ± 0.14

Q: With E30K as the variant, how does the abundance fitness read?
A: -0.289 ± 0.099

Q: Which abundance fitness does the source give for E30N here?
A: -0.208 ± 0.087

Q: For E30R, which abundance fitness is on record?
A: -0.474 ± 0.085

Q: With E30L as the variant, how does the abundance fitness read?
A: -0.277 ± 0.055

Q: With E30V as the variant, how does the abundance fitness read?
A: -0.202 ± 0.045

Q: Which abundance fitness does the source give for E30I here?
A: -0.353 ± 0.14

Q: For G48W, which abundance fitness is on record?
A: -0.435 ± 0.091

Q: With G48Y as the variant, how does the abundance fitness read?
A: -0.494 ± 0.15

Q: With G48L as the variant, how does the abundance fitness read?
A: -0.423 ± 0.059

Q: For G48F, which abundance fitness is on record?
A: -0.293 ± 0.14

Q: For G48M, which abundance fitness is on record?
A: -0.296 ± 0.076

Q: For G48R, which abundance fitness is on record?
A: -0.376 ± 0.073

Q: With G48E as the variant, how does the abundance fitness read?
A: -0.169 ± 0.073

Q: With G48S as the variant, how does the abundance fitness read?
A: -0.132 ± 0.064

Q: With G48V as the variant, how does the abundance fitness read?
A: -0.741 ± 0.092

Q: Which abundance fitness does the source give for W28S here?
A: -0.014 ± 0.054

Q: Which abundance fitness does the source give for W28V here?
A: 0.107 ± 0.071

Q: For W28R, which abundance fitness is on record?
A: 0.039 ± 0.041

Q: For W28Q, which abundance fitness is on record?
A: 0.026 ± 0.063

Q: With W28P as the variant, how does the abundance fitness read?
A: -0.113 ± 0.089

Q: Which abundance fitness does the source give for I23E here?
A: -0.833 ± 0.13

Q: Which abundance fitness does the source give for I23D here?
A: -0.739 ± 0.19

Q: With I23G as the variant, how does the abundance fitness read?
A: -0.588 ± 0.098

Q: With I23Q as the variant, how does the abundance fitness read?
A: -0.936 ± 0.13

Q: With I23S as the variant, how does the abundance fitness read?
A: -0.719 ± 0.064

Q: Which abundance fitness does the source give for I23K here?
A: -0.718 ± 0.097

Q: For I23A, which abundance fitness is on record?
A: -0.705 ± 0.085

Q: Which abundance fitness does the source give for E39W here?
A: -0.227 ± 0.069

Q: For E39Y, which abundance fitness is on record?
A: -0.226 ± 0.097

Q: Which abundance fitness does the source give for E39R here?
A: 0.017 ± 0.051

Q: Which abundance fitness does the source give for E39N here?
A: 0.227 ± 0.092

Q: Which abundance fitness does the source give for E39K here?
A: 0.013 ± 0.072

Q: For E39M, which abundance fitness is on record?
A: 0.148 ± 0.071

Q: With E39H as the variant, how does the abundance fitness read?
A: 0.188 ± 0.1

Q: For E25V, which abundance fitness is on record?
A: -0.154 ± 0.12

Q: Which abundance fitness does the source give for E25Q here?
A: -0.266 ± 0.24

Q: Which abundance fitness does the source give for E25C here?
A: -0.325 ± 0.17

Q: With E25R as the variant, how does the abundance fitness read?
A: -0.328 ± 0.079

Q: Which abundance fitness does the source give for E25K here?
A: 0.139 ± 0.074

Q: Which abundance fitness does the source give for L29R here?
A: -0.728 ± 0.08

Q: Which abundance fitness does the source give for L29V here?
A: 0.102 ± 0.054

Q: Which abundance fitness does the source give for L29N here?
A: -0.577 ± 0.17

Q: Which abundance fitness does the source give for L29S here?
A: -0.491 ± 0.096

Q: With L29H as the variant, how does the abundance fitness read?
A: -0.6 ± 0.33

Q: Which abundance fitness does the source give for R44L here?
A: -0.342 ± 0.048

Q: With R44C as the variant, how does the abundance fitness read?
A: -0.178 ± 0.11

Q: With R44S as the variant, how does the abundance fitness read?
A: -0.253 ± 0.063

Q: Which abundance fitness does the source give for R44Q here?
A: -0.23 ± 0.073

Q: Which abundance fitness does the source give for E27S here?
A: -1.01 ± 0.14

Q: For E27V, which abundance fitness is on record?
A: -0.81 ± 0.15

Q: For E27P, which abundance fitness is on record?
A: -0.811 ± 0.14

Q: Which abundance fitness does the source give for E27T here?
A: -0.482 ± 0.09

Q: With E27Q as the variant, how does the abundance fitness read?
A: -0.285 ± 0.088

Q: Which abundance fitness does the source give for P54I here?
A: -0.426 ± 0.15

Q: Which abundance fitness does the source give for P54V here?
A: -0.638 ± 0.09

Q: With P54T as the variant, how does the abundance fitness read?
A: -0.831 ± 0.11

Q: Which abundance fitness does the source give for P54C here?
A: -0.001 ± 0.071
